Results published in patent US20200216522A1 (DENALI THERAPEUTICS, published 2020).

How the values were obtained:
Assay in all cases: peptide array
Peptide_031 = target: T1, Peptide_031 (human)
T1 peptide: IATPRGAAPPGQKGQ
In short: (§1)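 Overlapping 15-mer peptides (5-aa offset) spanning human 2N4R Tau spotted in triplicate on slides; antibodies bound 2 h at room temperature in 3% BSA-TBST (chimeric IgG 5 μg/mL; mouse IgG 30 μg/mL). Detection 1 h with fluorescent anti-human (568 nm) or anti-mouse (647 nm) secondary; fluorescence imaging aligned to array map.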

Peptide_046 = target: T2, Peptide_046 (human)
T2 peptide: VAVVRTPPKSPSSAK
In short: as §1

Peptide_059 = target: T3, Peptide_059 (human)
T3 peptide: CGSKDNIKHVPGGGS
In short: as §1

Peptide_050 = target: T4, Peptide_050 (human)
T4 peptide: APVPMPDLKNVKSKI
In short: as §1

Peptide_026 = target: T5, Peptide_026 (human)
T5 peptide: RMVSKSKDGTGSDDK
In short: as §1

Peptide_015 = target: T6, Peptide_015 (human)
T6 peptide: TAEDVTAPLVDEGAP
In short: as §1

Peptide_036 = target: T7, Peptide_036 (human)
T7 peptide: PPAPKTPPSSGEPPK
In short: as §1

Peptide_079 = target: T8, Peptide_079 (human)
T8 peptide: EIVYKSPVVSGDTSP
In short: as §1

Peptide_077 = target: T9, Peptide_077 (human)
T9 peptide: NAKAKTDHGAEIVYK
In short: as §1

Peptide_072 = target: T10, Peptide_072 (human)
T10 peptide: SLDNITHVPGGGNKK
In short: as §1

Peptide_016 = target: T11, Peptide_016 (human)
T11 peptide: TAPLVDEGAPGKQAA
In short: as §1

Peptide_025 = target: T12, Peptide_025 (human)
T12 peptide: HVTQARMVSKSKDGT
In short: as §1

Peptide_055 = target: T13, Peptide_055 (human)
T13 peptide: GGGKVQIINKKLDLS
In short: as §1

Peptide_063 = target: T14, Peptide_063 (human)
T14 peptide: KPVDLSKVTSKCGSL
In short: as §1

Peptide_007 = target: T15, Peptide_007 (human)
T15 peptide: MHQDQEGDTDAGLKE
In short: as §1

Peptide_056 = target: T16, Peptide_056 (human)
T16 peptide: QIINKKLDLSNVQSK
In short: as §1

Peptide_058 = target: T17, Peptide_058 (human)
T17 peptide: NVQSKCGSKDNIKHV
In short: as §1

process-control peptide = target: T18, process-control peptide
T18 construct: array control, not a Tau peptide
T18 peptide: GGSGGGSDYKDDDDK
In short: as §1

Peptide_078 = target: T19, Peptide_078 (human)
T19 peptide: TDHGAEIVYKSPVVS
In short: as §1

Peptide_087 = target: T20, Peptide_087 (human)
T20 peptide: TLADEVSASLAKQGL
In short: as §1

Peptide_075 = target: T21, Peptide_075 (human)
T21 peptide: IETHKLTFRENAKAK
In short: as §1

Peptide_038 = target: T22, Peptide_038 (human)
T22 peptide: GEPPKSGDRSGYSSP
In short: as §1

Peptide_030 = target: T23, Peptide_030 (human)
T23 peptide: DGKTKIATPRGAAPP
In short: as §1

Peptide_062 = target: T24, Peptide_062 (human)
T24 peptide: VQIVYKPVDLSKVTS
In short: as §1

Peptide_003 = target: T25, Peptide_003 (human)
T25 peptide: MEDHAGTYGLGDRKD
In short: as §1

Peptide_042 = target: T26, Peptide_042 (human)
T26 peptide: PGSRSRTPSLPTPPT
In short: as §1

Peptide_032 = target: T27, Peptide_032 (human)
T27 peptide: GAAPPGQKGQANATR
In short: as §1

Peptide_023 = target: T28, Peptide_023 (human)
T28 peptide: TPSLEDEAAGHVTQA
In short: as §1

Peptide_041 = target: T29, Peptide_041 (human)
T29 peptide: GSPGTPGSRSRTPSL
In short: as §1

Peptide_082 = target: T30, Peptide_082 (human)
T30 peptide: RHLSNVSSTGSIDMV
In short: as §1

Peptide_052 = target: T31, Peptide_052 (human)
T31 peptide: VKSKIGSTENLKHQP
In short: as §1

Peptide_034 = target: T32, Peptide_034 (human)
T32 peptide: ANATRIPAKTPPAPK
In short: as §1

Peptide_020 = target: T33, Peptide_020 (human)
T33 peptide: EIPEGTTAEEAGIGD
In short: as §1

Peptide_061 = target: T34, Peptide_061 (human)
T34 peptide: PGGGSVQIVYKPVDL
In short: as §1

Peptide_051 = target: T35, Peptide_051 (human)
T35 peptide: PDLKNVKSKIGSTEN
In short: as §1

B1: chimeric IgG clone 1D10 (antibody, V domains shown)
VH: EVQLQQSGAELVRPGASVKLSCTASGFNIKDSLMHWMKQRPEQGLEWIGWIDPEDGETKYAPKFQDKATLTADTSSNAAYLQLSSLTSEDTAIYYCVRGDWDGGYWGQGTTLTVSS
VL: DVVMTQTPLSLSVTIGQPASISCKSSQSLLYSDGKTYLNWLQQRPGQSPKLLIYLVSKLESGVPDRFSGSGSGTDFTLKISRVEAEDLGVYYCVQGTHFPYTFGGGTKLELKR
notes: mouse-human chimeric IgG from HEK293
**Q.** Does B1 bind (Peptide_031)?
**A.** no binding (tested: 5 ug/mL)

**Q.** Does B1 bind (Peptide_046)?
**A.** no binding (tested: 5 ug/mL)

**Q.** Does B1 bind (Peptide_059)?
**A.** no binding (tested: 5 ug/mL)

**Q.** Does B1 bind (Peptide_050)?
**A.** no binding (tested: 5 ug/mL)

**Q.** Does B1 bind (Peptide_026)?
**A.** no binding (tested: 5 ug/mL)

**Q.** Does B1 bind (Peptide_015)?
**A.** no binding (tested: 5 ug/mL)

**Q.** Does B1 bind (Peptide_036)?
**A.** no binding (tested: 5 ug/mL)

**Q.** Does B1 bind (Peptide_079)?
**A.** no binding (tested: 5 ug/mL)

**Q.** Does B1 bind (Peptide_077)?
**A.** no binding (tested: 5 ug/mL)

**Q.** Does B1 bind (Peptide_072)?
**A.** no binding (tested: 5 ug/mL)

**Q.** Does B1 bind (Peptide_016)?
**A.** no binding (tested: 5 ug/mL)

**Q.** Does B1 bind (Peptide_025)?
**A.** no binding (tested: 5 ug/mL)

**Q.** Does B1 bind (Peptide_055)?
**A.** no binding (tested: 5 ug/mL)

**Q.** Does B1 bind (Peptide_063)?
**A.** no binding (tested: 5 ug/mL)

**Q.** Does B1 bind (Peptide_007)?
**A.** no binding (tested: 5 ug/mL)

**Q.** Does B1 bind (Peptide_056)?
**A.** no binding (tested: 5 ug/mL)

**Q.** Does B1 bind (Peptide_058)?
**A.** no binding (tested: 5 ug/mL)

**Q.** Does B1 bind (process-control peptide)?
**A.** no binding (tested: 5 ug/mL)

**Q.** Does B1 bind (Peptide_078)?
**A.** no binding (tested: 5 ug/mL)

**Q.** Does B1 bind (Peptide_087)?
**A.** no binding (tested: 5 ug/mL)

**Q.** Does B1 bind (Peptide_075)?
**A.** no binding (tested: 5 ug/mL)

**Q.** Does B1 bind (Peptide_038)?
**A.** no binding (tested: 5 ug/mL)

**Q.** Does B1 bind (Peptide_030)?
**A.** no binding (tested: 5 ug/mL)

**Q.** Does B1 bind (Peptide_062)?
**A.** no binding (tested: 5 ug/mL)

**Q.** Does B1 bind (Peptide_003)?
**A.** no binding (tested: 5 ug/mL)

**Q.** Does B1 bind (Peptide_042)?
**A.** no binding (tested: 5 ug/mL)

**Q.** Does B1 bind (Peptide_032)?
**A.** no binding (tested: 5 ug/mL)

**Q.** Does B1 bind (Peptide_023)?
**A.** no binding (tested: 5 ug/mL)

**Q.** Does B1 bind (Peptide_041)?
**A.** no binding (tested: 5 ug/mL)

**Q.** Does B1 bind (Peptide_082)?
**A.** no binding (tested: 5 ug/mL)

**Q.** Does B1 bind (Peptide_052)?
**A.** binds

**Q.** Does B1 bind (Peptide_034)?
**A.** no binding (tested: 5 ug/mL)

**Q.** Does B1 bind (Peptide_020)?
**A.** no binding (tested: 5 ug/mL)

**Q.** Does B1 bind (Peptide_061)?
**A.** no binding (tested: 5 ug/mL)

**Q.** Does B1 bind (Peptide_051)?
**A.** binds
